# Assay results from the supplement of paper PMC5998384.
# Experiments:
# HeLa Kyoto [1] = experiment: solubility change mitosis vs G1/S (difference of NP-40 vs SDS log2 ratios) (log2 ratio difference); higher = more soluble in mitosis
# HeLa Kyoto [2] = experiment: melting temperature (median over replicates), in situ; higher = more thermally stable
# HeLa Kyoto [3] = experiment: solubility in G1/S (NP-40 vs SDS abundance) (log2 ratio); higher = more soluble; conditions: cell cycle stage: G1/S
# HeLa Kyoto [4] = experiment: thermal stability score vs G1/S (z-score of summed log2 fold changes over temperatures); higher = more thermally stable than in G1/S
# [5] = cell cycle stage: early G1 (4.5 h after nocodazole release)
# 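Throughout, for melting temperature (median over replicates), in situ: HeLa Kyoto cells synchronized by double thymidine or nocodazole block, proteins quantified by TMT10plex mass spectrometry, three independent biological replicates.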
# 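Throughout, for solubility change mitosis vs G1/S (difference of NP-40 vs SDS log2 ratios): synchronized HeLa Kyoto cells (double thymidine block for G1/S, nocodazole release for mitosis), protein amounts in NP-40 versus SDS lysates quantified by mass spectrometry, three biological replicates.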
# 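Throughout, for solubility in G1/S (NP-40 vs SDS abundance): HeLa Kyoto cells arrested at G1/S by double thymidine block, proteins quantified by TMT10plex mass spectrometry in mild NP-40 versus SDS extracts, three biological replicates.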
# 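Throughout, for thermal stability score vs G1/S (z-score of summed log2 fold changes over temperatures): synchronized HeLa Kyoto cells, proteins quantified by TMT10plex mass spectrometry, three biological replicates, mitosis taken 0.5 h after nocodazole release, G1/S directly after double thymidine block.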
Sequence,solubility change mitosis (log2) (HeLa Kyoto [1]),melting temperature (HeLa Kyoto [2]; cell cycle stage: G1/S) [°C],solubility in G1/S (log2) (HeLa Kyoto [3]),thermal stability score (HeLa Kyoto [4]; [5]),thermal stability score (HeLa Kyoto [4]; cell cycle stage: mitosis),melting temperature (HeLa Kyoto [2]; cell cycle stage: mitosis) [°C]
MMRFMLLFSRQGKLRLQKWYLATSDKERKKMVRELMQVVLARKPKMCSFLEWRDLKVVYKRYASLYFCCAIEGQDNELITLELIHRYVELLDKYFGSVCELDIIFNFEKAYFILDEFLMGGDVQDTSKKSVLKAIEQADLLQEEDESPRSVLEEMGLA [AP1S1],-0.0672,53,-0.154,-1.3,-0.738,
MMSDEKNLGVSQKLVSPSRSTSSCSSKQGSRQDSWEVVEGLRGEMNYTQEPPVQKGFLLKKRKWPLKGWHKRFFYLDKGILKYAKSQTDIEREKLHGCIDVGLSVMSVKKSSKCIDLDTEEHIYHLKVKSEEVFDEWVSKLRHHRMYRQNEIAMFPHEVNHFFSGSTITDSSSGVFDSISSRKRSSISKQNLFQTGSNVSFSCGGETRVPLWLQSSEDMEKCSKDLAHCHAYLVEMSQLLQSMDVLHRTYSAPAINAIQGGSFESPKKEKRSHRRWRSRAIGKDAKGTLQVPKPFSGPVRLHSSNPNLSTLDFGEEKNYSDGSETSSEFSKMQEDLCHIAHKVYFTLRSAFNIMSAEREKLKQLMEQDASSSPSAQVIGLKNALSSALAQNTDLKERLRRIHAESLLLDSPAVAKSGDNLAEENSRDENRALVHQLSNESRLSITDSLSEFFDAQEVLLSPSSSENEISDDDSYVSDISDNLSLDNLSNDLDNERQTLGPVLDSGREAKSRRRTCLPAPCPSSSNISLWNILRNNIGKDLSKVAMPVELNEPLNTLQRLCEELEYSELLDKAAQIPSPLERMVYVAAFAISAYASSYYRAGSKPFNPVLGETYECIREDKGFQFFSEQVSHHPPISACHAESRNFVFWQDVRWKNKFWGKSMEIVPIGTTHVTLPVFGDHFEWNKVTSCIHNILSGQRWIEHYGEIVIKNLHDDSCYCKVNFIKAKYWSTNAHEIEGTVFDRSGKAVHRLFGKWHESIYCGGGSSSACVWRANPMPKGYEQYYSFTQFALELNEMDPSSKSLLPPTDTRFRPDQRFLEEGNLEEAEIQKQRIEQLQRERRRVLEENHVEHQPRFFRKSDDDSWVSNGTYLELRKDLGFSKLDHPVLW [OSBPL3],-0.0655,48.8,-0.196,0.31,0.491,48.7
MMSLSVRPQRRLLSARVNRSQSFAGVLGSHERGPSLSFRSFPVFSPPGPPRKPPALSRVSRMFSVAHPAAKVPQPERLDLVYTALKRGLTAYLEVHQQEQEKLQGQIRESKRNSRLGFLYDLDKQVKSIERFLRRLEFHASKIDELYEAYCVQRRLRDGAYNMVRAYTTGSPGSREARDSLAEATRGHREYTESMCLLESELEAQLGEFHLRMKGLAGFARLCVGDQYEICMKYGRQRWKLRGRIEGSGKQVWDSEETIFLPLLTEFLSIKVTELKGLANHVVVGSVSCETKDLFAALPQVVAVDINDLGTIKLSLEVTWSPFDKDDQPSAASSVNKASTVTKRFSTYSQSPPDTPSLREQAFYNMLRRQEELENGTAWSLSSESSDDSSSPQLSGTARHSPAPRPLVQQPEPLPIQVAFRRPETPSSGPLDEEGAVAPVLANGHAPYSRTLSHISEASVDAALAEASVEAVGPESLAWGPSPPTHPAPTHGEHPSPVPPALDPGHSATSSTLGTTGSVPTSTDPAPSAHLDSVHKSTDSGPSELPGPTHTTTGSTYSAITTTHSAPSPLTHTTTGSTHKPIISTLTTTGPTLNIIGPVQTTTSPTHTMPSPTHTTASPTHTSTSPTHTPTSPTHKTSMSPPTTTSPTPSGMGLVQTATSPTHPTTSPTHPTTSPILINVSPSTSLELATLSSPSKHSDPTLPGTDSLPCSPPVSNSYTQADPMAPRTPHPSPAHSSRKPLTSPAPDPSESTVQSLSPTPSPPTPAPQHSDLCLAMAVQTPVPTAAGGSGDRSLEEALGALMAALDDYRGQFPELQGLEQEVTRLESLLMQRQGLTRSRASSLSITVEHALESFSFLNEDEDEDNDVPGDRPPSSPEAGAEDSIDSPSARPLSTGCPALDAALVRHLYHCSRLLLKLGTFGPLRCQEAWALERLLREARVLEAVCEFSRRWEIPASSAQEVVQFSASRPGFLTFWDQCTERLSCFLCPVERVLLTFCNQYGARLSLRQPGLAEAVCVKFLEDALGQKLPRRPQPGPGEQLTVFQFWSFVETLDSPTMEAYVTETAEEVLLVRNLNSDDQAVVLKALRLAPEGRLRRDGLRALSSLLVHGNNKVMAAVSTQLRSLSLGPTFRERALLCFLDQLEDEDVQTRVAGCLALGCIKAPEGIEPLVYLCQTDTEAVREAARQSLQQCGEEGQSAHRRLEESLDALPRIFGPGSMASTAF [FAM65A],-0.096,50.1,0.0594,0.236,1.49,49.7
MNAARTGYRVFSANSTAACTELAKRITERLGAELGKSVVYQETNGETRVEIKESVRGQDIFIIQTIPRDVNTAVMELLIMAYALKTACARNIIGVIPYFPYSKQSKMRKRGSIVCKLLASMLAKAGLTHIITMDLHQKEIQGFFSFPVDNLRASPFLLQYIQEEIPNYRNAVIVAKSPDAAKRAQSYAERLRLGLAVIHGEAQCTELDMDDGRHSPPMVKNATVHPGLELPLMMAKEKPPITVVGDVGGRIAIIVDDIIDDVESFVAAAEILKERGAYKIYVMATHGILSAEAPRLIEESSVDEVVVTNTVPHEVQKLQCPKIKTVDISLILSEAIRRIHNGESMAYLFRNITVDD [PRPSAP1],-0.211,55.6,0.0529,-0.299,-2.79,54.6
MNFAEREGSKRYCIQTKHVAILCAVVVGVGLIVGLAVGLTRSCDSSGDGGPGTAPAPSHLPSSTASPSGPPAQDQDICPASEDESGQWKNFRLPDFVNPVHYDLHVKPLLEEDTYTGTVSISINLSAPTRYLWLHLRETRITRLPELKRPSGDQVQVRRCFEYKKQEYVVVEAEEELTPSSGDGLYLLTMEFAGWLNGSLVGFYRTTYTENGQVKSIVATDHEPTDARKSFPCFDEPNKKATYTISITHPKEYGALSNMPVAKEESVDDKWTRTTFEKSVPMSTYLVCFAVHQFDSVKRISNSGKPLTIYVQPEQKHTAEYAANITKSVFDYFEEYFAMNYSLPKLDKIAIPDFGTGAMENWGLITYRETNLLYDPKESASSNQQRVATVVAHELVHQWFGNIVTMDWWEDLWLNEGFASFFEFLGVNHAETDWQMRDQMLLEDVLPVQEDDSLMSSHPIIVTVTTPDEITSVFDGISYSKGSSILRMLEDWIKPENFQKGCQMYLEKYQFKNAKTSDFWAALEEASRLPVKEVMDTWTRQMGYPVLNVNGVKNITQKRFLLDPRANPSQPPSDLGYTWNIPVKWTEDNITSSVLFNRSEKEGITLNSSNPSGNAFLKINPDHIGFYRVNYEVATWDSIATALSLNHKTFSSADRASLIDDAFALARAQLLDYKVALNLTKYLKREENFLPWQRVISAVTYIISMFEDDKELYPMIEEYFQGQVKPIADSLGWNDAGDHVTKLLRSSVLGFACKMGDREALNNASSLFEQWLNGTVSLPVNLRLLVYRYGMQNSGNEISWNYTLEQYQKTSLAQEKEKLLYGLASVKNVTLLSRYLDLLKDTNLIKTQDVFTVIRYISYNSYGKNMAWNWIQLNWDYLVNRYTLNNRNLGRIVTIAEPFNTELQLWQMESFFAKYPQAGAGEKPREQVLETVKNNIEWLKQHRNTIREWFFNLLESG [ENPEP],0.193,57.4,-0.159,-1.64,-0.842,55.9
